# Reference: paper doi:10.1101/2025.02.20.639226, “In vitro reconstitution of minimal human centrosomes” (bioRxiv, 2025)
# Experiments:
# [1] = target: GFP::CDK5RAP2 isoform B (full-length, wild type) (human) (UniProt Q96SN8); assay: partitioning into in vitro scaffolds, confocal fluorescence microscopy; 4-component asters: 167nm GFP::CDK5RAP2, 33nM mBFP::γ-TuRCs, 33nM mCherry::HSET, 13μM HiLyte-647-labeled α/β tubulin; 50mM KCl, 25mM HEPES, pH7.4, IgM+; no ATP·MgCl2; compared with 3-component asters
# [2] = target: T1, GFP::CDK5RAP2 isoform B (full-length, wild type) (human, UniProt Q96SN8-4 1-1814); assay: partitioning into in vitro scaffolds, confocal fluorescence microscopy; GFP::CDK5RAP2 assemblies (120nM) induced with anti-CM2 IgM; mCherry, full-length or ΔIDR mCherry::HSET at 50nM; 50mM KCl, 25mM HEPES; partition coefficient; details: both partners purified
# T1 construct: CDK5 regulatory subunit-associated protein 2 (CDK5RAP2/CEP215), human, isoform B, Protein ID Q96SN8-4, lacking a.a; 1576-1654 of the longest isoform; Stood in the assays as micron-scale assemblies nucleated by an anti-CM2 IgM; also called CEP215; GFP::CDK5RAP2 scaffolds; source: SF9 insect cells (baculovirus, FlexiBAC), purified (Ni-NTA, MBP trap beads, eluted with PreScission protease)
# T1 sequence (Q96SN8 other isoform, or with tags, fused parts or gaps): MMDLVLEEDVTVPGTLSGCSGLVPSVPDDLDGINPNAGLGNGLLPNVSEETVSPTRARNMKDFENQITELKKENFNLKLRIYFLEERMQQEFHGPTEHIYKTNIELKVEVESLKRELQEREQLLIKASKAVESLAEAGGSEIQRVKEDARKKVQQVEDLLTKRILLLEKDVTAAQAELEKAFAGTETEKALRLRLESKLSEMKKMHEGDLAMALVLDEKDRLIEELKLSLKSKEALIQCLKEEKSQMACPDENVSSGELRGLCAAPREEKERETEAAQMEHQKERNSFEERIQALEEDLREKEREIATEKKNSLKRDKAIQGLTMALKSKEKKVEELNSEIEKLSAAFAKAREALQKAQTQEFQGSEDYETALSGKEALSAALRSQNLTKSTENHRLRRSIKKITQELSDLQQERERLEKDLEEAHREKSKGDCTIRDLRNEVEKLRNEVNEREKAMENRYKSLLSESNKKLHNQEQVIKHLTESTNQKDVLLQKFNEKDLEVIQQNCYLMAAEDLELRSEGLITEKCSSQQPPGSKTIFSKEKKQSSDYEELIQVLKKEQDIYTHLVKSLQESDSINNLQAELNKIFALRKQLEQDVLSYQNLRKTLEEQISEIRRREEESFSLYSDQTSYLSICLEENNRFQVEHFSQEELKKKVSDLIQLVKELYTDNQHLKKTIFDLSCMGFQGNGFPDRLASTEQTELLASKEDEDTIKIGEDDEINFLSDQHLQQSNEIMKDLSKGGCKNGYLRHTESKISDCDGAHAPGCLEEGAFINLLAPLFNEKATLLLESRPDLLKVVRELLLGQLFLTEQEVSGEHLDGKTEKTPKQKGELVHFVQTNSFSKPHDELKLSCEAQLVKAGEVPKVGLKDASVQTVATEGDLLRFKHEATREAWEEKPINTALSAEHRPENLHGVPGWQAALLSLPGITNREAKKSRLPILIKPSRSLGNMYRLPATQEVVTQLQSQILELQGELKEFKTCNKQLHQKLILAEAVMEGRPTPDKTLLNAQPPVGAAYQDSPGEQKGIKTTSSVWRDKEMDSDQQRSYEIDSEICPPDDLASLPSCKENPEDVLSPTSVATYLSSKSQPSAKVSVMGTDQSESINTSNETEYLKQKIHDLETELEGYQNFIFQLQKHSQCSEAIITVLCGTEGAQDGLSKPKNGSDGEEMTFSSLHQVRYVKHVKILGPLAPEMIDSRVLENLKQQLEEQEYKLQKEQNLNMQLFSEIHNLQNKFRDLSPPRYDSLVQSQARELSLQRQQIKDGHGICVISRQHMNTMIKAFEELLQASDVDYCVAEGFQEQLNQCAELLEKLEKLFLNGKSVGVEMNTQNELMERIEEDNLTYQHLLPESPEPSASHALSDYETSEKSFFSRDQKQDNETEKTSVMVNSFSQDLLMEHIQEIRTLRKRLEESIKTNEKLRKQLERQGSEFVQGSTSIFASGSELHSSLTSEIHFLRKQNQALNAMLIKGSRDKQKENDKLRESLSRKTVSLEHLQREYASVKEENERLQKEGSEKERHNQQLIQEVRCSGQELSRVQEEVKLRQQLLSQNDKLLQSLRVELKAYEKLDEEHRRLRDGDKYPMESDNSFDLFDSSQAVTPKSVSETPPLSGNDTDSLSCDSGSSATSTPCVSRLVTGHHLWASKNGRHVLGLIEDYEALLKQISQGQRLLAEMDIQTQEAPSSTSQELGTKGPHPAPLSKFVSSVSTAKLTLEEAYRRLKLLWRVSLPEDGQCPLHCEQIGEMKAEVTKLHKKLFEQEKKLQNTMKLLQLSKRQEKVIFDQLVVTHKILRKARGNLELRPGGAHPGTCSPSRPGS
# human gamma tubulin ring complex tagged with blue fluorescent protein (mBFP::γ-TuRC), sequence (P23258 whole entry, looked up, one chain of several): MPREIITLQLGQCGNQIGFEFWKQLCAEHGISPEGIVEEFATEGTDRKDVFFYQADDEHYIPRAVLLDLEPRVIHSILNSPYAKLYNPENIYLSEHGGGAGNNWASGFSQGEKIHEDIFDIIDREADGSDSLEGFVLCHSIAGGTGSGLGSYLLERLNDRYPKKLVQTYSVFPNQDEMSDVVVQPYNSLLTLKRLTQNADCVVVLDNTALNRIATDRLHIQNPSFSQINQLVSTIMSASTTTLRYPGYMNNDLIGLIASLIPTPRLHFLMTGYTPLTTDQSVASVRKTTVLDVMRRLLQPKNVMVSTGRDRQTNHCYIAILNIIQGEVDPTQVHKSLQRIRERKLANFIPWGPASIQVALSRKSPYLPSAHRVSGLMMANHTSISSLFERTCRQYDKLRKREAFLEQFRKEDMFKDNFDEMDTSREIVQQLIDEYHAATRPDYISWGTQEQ
# GFP::CDK5RAP2 isoform B (full-length, wild type) (human), sequence (Q96SN8 other isoform, or with tags, fused parts or gaps): as the sequence (Q96SN8 other isoform, or with tags, fused parts or gaps) above
molecule,measurement,setting,value
human gamma tubulin ring complex tagged with blue fluorescent protein (mBFP::γ-TuRC) (from UniProt P23258 1-451),fold more recruited into scaffolds in the presence of mCherry::HSET (4-component against 3-component),[1],1.4 fold
"mCherry::HSET (full-length, wild type) (natural protein, human, UniProt Q9BW19 1-673, looked up, HSET/KifC1, kinesin-14 motor protein, human; also called KifC1; HSET/KifC1; source: SF9 insect cells (baculovirus, FlexiBAC), purified (Ni-NTA)) MDPQRSPLLEVKGNIELKRPLIKAPSQLPLSGSRLKRRPDQMEDGLEPEKKRTRGLGATTKITTSHPRVPSLTTVPQTQGQTTAQKVSKKTGPRCSTAIATGLKNQKPVPAVPVQKSGTSGVPPMAGGKKPSKRPAWDLKGQLCDLNAELKRCRERTQTLDQENQQLQDQLRDAQQQVKALGTERTTLEGHLAKVQAQAEQGQQELKNLRACVLELEERLSTQEGLVQELQKKQVELQEERRGLMSQLEEKERRLQTSEAALSSSQAEVASLRQETVAQAALLTEREERLHGLEMERRRLHNQLQELKGNIRVFCRVRPVLPGEPTPPPGLLLFPSGPGGPSDPPTRLSLSRSDERRGTLSGAPAPPTRHDFSFDRVFPPGSGQDEVFEEIAMLVQSALDGYPVCIFAYGQTGSGKTFTMEGGPGGDPQLEGLIPRALRHLFSVAQELSGQGWTYSFVASYVEIYNETVRDLLATGTRKGQGGECEIRRAGPGSEELTVTNARYVPVSCEKEVDALLHLARQNRAVARTAQNERSSRSHSVFQLQISGEHSSRGLQCGAPLSLVDLAGSERLDPGLALGPGERERLRETQAINSSLSTLGLVIMALSNKESHVPYRNSKLTYLLQNSLGGSAKMLMFVNISPLEENVSESLNSLRFASKVNQCVIGTAQANRK",binding result,[2],binds
